Results reported in patent US20170082635A1.

Columns and labels:
Histone H4 (human) = Histone H4 (human) (UniProt P62805); test: in vivo azide-A-DSBSO XL-MS, HEK 293 cells
Histone H3.2 (human) = Histone H3.2 (human) (UniProt Q71DI3); test: in vivo azide-A-DSBSO XL-MS, HEK 293 cells

unique cross-linked peptides (Histone H4 (human)): 10 peptides | unique cross-linked peptides (Histone H3.2 (human)): 8 peptides
Substance: Histone H2B (core histone, isoforms not told apart)
